Results as given in patent publication US12493026B2, “Tissue engineered 3D models for cancer metastasis” (The Board of Trustees of the Leland Stanford Junior …, priority 2019, dated 2025).

Legend:
tissue engineered bone [1] = test: Breast cancer-induced bone resorption in 3D tri-culture model of osteoclasts, osteoblasts and breast cancer cells (μCT); type: cell-based; conditions: 14 days
Procedure: In order to assess the effect of breast cancer in promoting osteoclast activation and bone resorption, the bone mineral density of (1) tissue engineered bone alone (No BrCa), (2) tissue engineered bone+MDA-MB-231 breast cancer cells, and (3) tissue engineered bone+MCF-7 breast cancer cells were evaluated. Tissue engineered bone was developed as described previously. After 28 days in osteogenic media, a 2 mm diameter disk was cut out from the center of tissue engineered bone, leaving an empty hole in the center. Prior to introducing breast cancer cells, 1 million osteoclasts were seeded directly over tissue engineered bone and incubated for 1 hour to allow cells to attach. […] Bone mineralization was monitored using X-ray microcomputed tomography (GE CT120) with setting of 100 kV X-ray voltage, 500 μA current, 50 μm voxel resolution and continuous 360° rotation scanning. Reconstructed 3D μCT images were analyzed for changes in bone mineral density using Parallax Microview.
Validation was performed of a 3D tri-culture model that includes osteoclasts, osteoblasts, and breast cancer cells to mimic clinical outcomes effects of parathyroid hormone treatment on breast cancer patients.
Compared to the bi-culture model earlier (osteoblasts+breast cancer cells), this tri-culture model involves additional osteoclasts seeded on top of the scaffolds. […]

tissue engineered bone [2] = test: Bone mineral density of tissue engineered bone in 3D coculture (μCT); type: cell-based, human; conditions: 1 μg/mL PTH for 6 hours every 48 hours, FIG. 8(C)
Procedure: Bone mineral density was evaluated over 14 days by comparing tissue engineered bone cultured with (+BrCa) and without (−BrCa) breast cancer cells. Cocultures of tissue engineered bone with MDA-MB-231 were generated as described previously and cultured in EMEM GM for 14 days. Bone mineralization was monitored using X-ray microcomputed tomography (GE CT120) with setting of 100 kV X-ray voltage, 500 μA current, 50 μm voxel resolution and continuous 360° rotation scanning. Reconstructed 3D μCT images will be analyzed for changes in bone mineral density using Parallax Microview.
(§1) Cocultures of MDA-MB-231 and tissue engineered bone were developed as previously described. Upon starting the coculture, scaffolds were treated with 1 μg/mL of parathyroid hormone (PTH) or PBS control for 6 hours every 48 hours. Breast cancer cell invasion into tissue-engineered bone was monitored using fluorescence microscopy every other day for 7 days. Bone mineralization was monitored using X-ray microcomputed tomography (GE CT120) with setting of 100 kV X-ray voltage, 500 μA current, 50 μm voxel resolution and continuous 360° rotation scanning. Reconstructed 3D μCT images were analyzed for changes in bone mineral density using Parallax Microview. Osteoblast cell proliferation was tracked over the culture period using bioluminescence imaging.

[3] = tested on: breast cancer cell-bone metastasis; conditions: mouse models; cited from earlier work
hMSC-derived osteoblasts = test: Osteoblast cell proliferation/survival in 3D coculture (bioluminescence imaging); type: cell-based, human; conditions: 1 μg/mL PTH for 6 hours every 48 hours, FIG. 8(A)
Procedure: as §1

[4] = tested on: MDA-MB-231 breast cancer cells; test: Breast cancer cell proliferation in 3D coculture (bioluminescence imaging); type: cell-based; conditions: 1 μg/mL PTH for 6 hours every 48 hours, FIG. 7(B)
Text: To evaluate the effect of breast cancer cell aggressiveness in their invasion rate into bone, MDA-MB-231 breast cancer cells (more aggressive) were compared to MCF-7 breast cancer cells (less aggressive). Tissue engineered bone was generated as described previously. MDA-MB-231 and MCF-7 breast cancer cells were encapsulated into gelatin μRBs forming 2 mm diameter disks, which were introduced into the center of tissue-engineered bone and placed in EMEM growth media for 7 days. Breast cancer invasion into all groups was performed using fluorescence imaging at the interface between the outer and inner disks over 7 days. Cell proliferation was tracked over the culture period using bioluminescence imaging.
as §1, with “Osteoblast cell proliferation was tracked over the culture period using bioluminescence imaging.” left out

[5] = tested on: MDA-MB-231 breast cancer cells; test: Breast cancer cell invasion into tissue engineered bone in spatially patterned 3D coculture (fluorescence imaging); type: cell-based; conditions: 1 μg/mL PTH for 6 hours every 48 hours; MDA-MB-231 coculture, 7 days; FIG. 7(A)
Text: To mimic the microanatomical structures of breast cancer invasion into bone through bone marrow/long bone interface (FIGS. 1A and 1B), a “doughnut shape” 3D co-culture model was developed with mesenchymal stem cell (MSC)-formed tissue engineered bone in the outside ring, and breast cancer cells in the center (FIG. 1C). To facilitate imaging the two cell populations, human MSCs were fluorescently labelled red and breast cancer cells were labeled green (GFP). Gelatin μRBs were synthesized as previously reported. Freeze-dried μRBs were rehydrated in PBS containing 0.05% lithium phenyl-2,4,6-trimethylbenzoylphosphinate photoinitiator. […] Breast cancer invasion into tissue engineered bone was monitored using fluorescence imaging at the interface between the outer and inner disks.
Cocultures of MDA-MB-231 and tissue engineered bone were developed as previously described. […] Breast cancer cell invasion into tissue-engineered bone was monitored using fluorescence microscopy every other day for 7 days. Bone mineralization was monitored using X-ray microcomputed tomography (GE CT120) with setting of 100 kV X-ray voltage, 500 μA current, 50 μm voxel resolution and continuous 360° rotation scanning. Reconstructed 3D μCT images were analyzed for changes in bone mineral density using Parallax Microview. […]

B1: parathyroid hormone (protein, UniProt P01270 32-115, looked up)
Parathyroid hormone: SVSEIQLMHNLGKHLNSMERVEWLRKKLQDVHNFVALGAPLAPRDAGSQRPRKKEDNVLVESHEKSLGEADKADVNVLTKAKSQ
modifications: Parathyroid hormone
notes: parathyroid hormone; drug that reduces breast cancer-bone metastasis in vivo
Q: Which “breast cancer-induced bone resorption (bone loss)” value (tissue engineered bone [1]; continuous PTH treatment (cPTH)) does the source give for B1 here?
A: does not reduce

Q: And the “breast cancer-induced bone resorption (bone loss)” value (tissue engineered bone [1]; intermittent PTH treatment (iPTH))?
A: can reduce

Q: And the “breast cancer cell-induced reduction in bone mineralization (bone mineral density)” value (tissue engineered bone [2])?
A: prevents

Q: What about the “breast cancer cell-bone metastasis” value [3] of the same molecule?
A: specifically reduce

Q: And the “osteoblast cell survival in the presence of breast cancer invasion” value (hMSC-derived osteoblasts)?
A: enhances

Q: And the “breast cancer cell proliferation” value [4]?
A: does not impact

Q: And the “breast cancer cell invasion into tissue engineered bone” value [5]?
A: significantly reduces
